Experiment [1] concerns SK-MEL 28 cells. Briefly: Cell cycle analysis by propidium iodide staining and flow cytometry. Conditions: 100 nM, 48 h. It counts as cell-based, human. How it is done:
To further assess the affect of SEAM 3 mAb on cell growth, the stage of the cell cycle after treatment with SEAM 3 was determined. In this experiment, the cells were stained with the fluorescent DNA binding dye propidium iodide to characterize cell populations in various stages of the cell cycle and the effects of adding control antibodies, nocodazole (a drug that arrest the cells in mitosis) and SEAM 3.
Approximately 10^5 SK-MEL 28 cells were plated on a 96-well tissue culture plate and allowed to adhere. After 24 h the medium was replaced with one that had either antibody or drug and incubated for a further 48 h. Cells were spun (to collect any cells that may have detached), and fixed in 70% ice-cold methanol (added drop wise) for at least 30 minutes at 4° C. The cells were washed twice with PBS, and to ensure that only DNA was stained, the fixed cells were treated with ribonuclease I (100 μg/ml, source) for 30 minutes at 37° C. Propidium iodide (50 μg/ml) was added and samples were analyzed using a Guava EasyCyte flow cytometer.

Experiment [2] deals with SEAM 3. Briefly: Inhibition ELISA of SEAM 3 binding to plate-coated N-Pr NmB PS-dodecylamine. Conditions: dilution required to decrease absorbance at 405 nm by 50%. Details: species or system murine. How it is done: The ability of colominic acid and N-Pr NmB PS to inhibit binding of SEAM 3 to in an ELISA was compared to sialidase A-treated colominic acid and N-Pr NmB PS prepared as described above. The wells of microtiter plates (Immulon 2; Dynatech Laboratories, Inc.) were coated with N-Pr NmB PS-dodecylamine (prepared as described in Example 1) in phosphate buffered saline (PBS; pH 7.4). The plates were incubated overnight at 4° C. After washing three times with PBS, the wells were filled with 200 μl of blocking buffer (PBS containing 1% bovine serum albumin [BSA, Sigma] and 0.1% sodium azide; [pH 7.4]) and then incubated for 30-60 min at room temperature to block nonspecific binding sites. The plates were washed three times with PBS buffer. Inhibitors were serially diluted in blocking buffer on the plate in total final volume of 50 μl. SEAM 3 diluted in blocking buffer to a concentration that produced an OD405 nm of 0.5 when developed with substrate was added to the wells in a volume of 50 μl. The plates were covered and incubated overnight at 4° C. […] The absorbance at 405 nm after 30 minutes incubation at ambient temperature was measured using a BioRad Model 550 microtiter plate reader. The relative activity of each sample was compared by determining the dilution required to decrease the absorbance at 405 nm by 50% of the absorbance observed in wells containing SEAM 3 but no inhibitor.
For orientation: An ELISA detects its analyte on a solid surface through an enzyme-linked reagent.

Experiment [3] relates to NmB strain M7. Briefly: Fluorescence microscopy of SEAM 12 binding to capsule PS on NmB strain M7 grown with N-acyl mannosamine supplements. More on the design: species or system Neisseria meningitidis. The text has this: The trihaloacetylated mannosamine was incorporated into NmB PS by inoculating colonies of NmB strain M7 grown overnight at 37 degrees C. in 5% carbon dioxide on a freshly streaked chocolate agar plate to an OD620 nm of 0.1 in Muller-Hinton broth supplemented with 5 millimolar N-acyl mannosamine For example, N-acetyl, -trichloroacetyl, -trifluoroacetyl mannosamine. Stain M7 contains a transposon the interrupts the gene encoding N-acetyl-D-glucosamine-6-phosphate 2 epimerase (Swartley et al. 1994, J. Bact. 176:1530; Swartley et al. 1996, J. Bact. 178:4052). As a result, the bacteria cannot synthesize capsule PS unless the growth media was supplemented with N-acetyl mannosamine Therefore, the N-acyl content of the capsule PS synthesized in this system can be determined by the N-acyl or mixture of N-acyl mannosamine provided in the growth media. The bacteria were grown at 37 degrees C. […]).
There is no binding of SEAM 12 to M7 without N-acyl mannosamine or with N-trichloroacetyl mannosamine supplement (FIG. 37, panels B and C). […] However, SEAM 12 does bind to the capsule PS containing N-trifluoroacetyl groups (FIG. 37, panel D, shaded gray in the figure) since the trifluoromethyl group is nearly the same size as the methyl group of the N-acetyl derivative.

In experiment [4] the test system is polysialic acid antigens expressed by the human neuronal cell line CHP-134. Conditions: cited from earlier work.

Data on four molecules can be found in patent US9872921B2, “DE-N-acetyl sialic acid antigens, antibodies thereto, and methods of use in cancer therapy” (priority 2004, dated 2018).

Chain of SEAM 3 (as listed by the source): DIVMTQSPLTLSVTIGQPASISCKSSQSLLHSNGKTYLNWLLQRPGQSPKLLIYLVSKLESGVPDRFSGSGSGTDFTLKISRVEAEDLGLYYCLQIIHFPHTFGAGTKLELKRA
Chain of SEAM 3 (as listed by the source): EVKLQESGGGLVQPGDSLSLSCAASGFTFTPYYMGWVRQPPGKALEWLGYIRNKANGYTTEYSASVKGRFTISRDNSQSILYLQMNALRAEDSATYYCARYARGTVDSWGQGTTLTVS

With `COC(=O)Nc1nc2cc(C(=O)c3cccs3)ccc2[nH]1` [nocodazole, reference compound], the “cells arrested in G2/M phase” value in experiment [1] was “approximately 50%”.

Consider “poly alpha (2→8) N-acetyl neuraminic acid [colominic acid]”, for which the “activity for binding to SEAM 3, fold less than N-Pr NmB PS” value in experiment [2] was “approximately 200 fold”.

B1: SEAM 12: anti-N-Pr NmB PS murine mAb (IgG2a) (antibody, V domains shown)
VH: QVKLEQSGGGLVRPGNSLKLSCVTSGFTFINYRMHWLRQPPGKRLEWIAVITDNSDNYVVNYAESVKGRFAISRDDSKSSVYLEMNRLREEDTATYFCSRSRRSFFDYWGQGTTLTVS
VL: DIVMTQTTVIMSASPGEKVTMTCSASSSVTYMHWYQQKSRTSPKLWIYDTSKLASGVPGRFSGSGSGNSYALTISSMEPEDVATYYCFQGSGYPLTFGAGTKLGLKRA
modifications: mouse
For the molecule B1, the “SEAM 12 binding to capsule PS” value in experiment [3] (capsule PS containing N-trifluoroacetyl groups) is listed as “does bind”. Also, the “SEAM 12 binding to M7” value in experiment [3] (growth media supplemented with N-acetyl mannosamine) is listed as “binding is indicated by the presence of red fluorescence”; in experiment [3] (with N-trichloroacetyl mannosamine supplement), “no binding”; in experiment [3] (without N-acyl mannosamine), “no binding”.

B2: SEAM 35: anti-N-Pr NmB PS murine mAb (IgG2a) (antibody, V domains shown)
VH: EVKLEESGGGLVQPGGSLSLSCAASGFTFTDYYLSWVRQPPGKALEWLGFIRNTANGYTTEYSASVKGRFTIARDNSQSILTLQMNALRAEDSATYYCARWSRRAMDYWGQGTSVTVS
VL: DIVMTQSPISMSMSLGERVTLSCKASENVGTYVSWYQQKPEQSPKLLISGASNRYTGVPDRFTGSGSATDFTLTISSVQAEDLADYHCGQSYNYPYTFGGGTKLEIKRA
modifications: mouse
As to B2, the “cross-reactivity with polysialic acid antigens expressed by CHP-134” value in experiment [4] is “greater cross-reactivity”.
